Reference: US8030017B2, “Thermostable luciferases and methods of production” (Promega Corporation, priority 1997, dated 2011)

Legend:
[1] = Robotic thermostability screen of LucPpl mutants: decrease of activity over 10 hours at screening temperature; format: physicochemical
Description: “Enzyme stability” was determined by the rate of activity loss from cell lysates over 10 hours. In successive rounds of evolution the incubation temperature of the lysates was increased.
To prepare luciferases having certain performance, a method for in vitro evolution of enzyme function, as described above, was employed. Briefly described, the method is a recursive process of generating random mutations and screening for desirable properties. It was originally developed primarily to increase the thermostability of luciferases, although other enzymological characteristics are also subject to optimization by the screening criteria. A slightly different strategy was used to achieve the properties described above since two related luciferases needed to be optimized concomitantly.
The luciferases from P. plagiophthalamus have 13 cysteines, which are potentially sensitive to oxidation. This is in contrast to the commonly used firefly luciferase, which has only 4 cysteines. To remove any cysteines that may limit enzyme stability, oligonucleotide-directed mutagenesis was used to randomize the cysteine codons. Three sets of oligonucleotides were used: non-conserved cysteines in regions of low sequence homology (positions 69, 114, 160, 194, 335, and 460), non-conserved cysteines in regions of higher sequence homology (positions 127, 213, 310, and 311), and highly conserved cysteines (positions 60, 80, and 388). […]
The random mutagenesis process was repeated using the best clone from the previous cycle of mutagenesis (Luc53-0G01). […] The discrepancy in measured activity of Luc53-0G01 in this cycle of mutagenesis compared to the previous cycle may be due to changes in the assay procedure and recalibration of the incubator temperature. It should be noted that the recorded thermostabilities from each stage of mutagenesis are calculated from robotic data using abbreviated assay procedures. The data are intended to indicate the relative stabilities of enzyme mutants when assayed in the same screen, rather than providing an accurate quantitation of thermostability.

[2] = test system: colonies of E. coli; assay: In vivo luminescence of recombinant colonies of E. coli (visual screen); format: cell-based
Description: Five to seven nitrocellulose disks having 200-500 colonies per disk (1000-3500 colonies total) are screened per 2 microplates (176 clones) (Wood and DeLuca, 1987). The clones are screened at high temperatures using standard screening conditions.
Screening method: In the qualitative visual screen, colonies were selected only for their ability to sustain relatively bright luminescence. The thermal stability of the luciferase within the colonies of E. coli was progressively challenged in successive rounds of evolution by increasing the temperature of the screen. The selected colonies were inoculated into wells of 96-well plates each containing 200 μl of growth medium.
JM109 clones (from a transformation reaction) are plated onto nitrocellulose filters placed on LB amp plates at a screening density of about 500 colonies per plate.
The nitrocellulose filter is lifted on one side and 500 μl of 10 mM IPTG is added to each of the plates. The filter is then placed back onto the plate to allow diffusion of the IPTG into the colonies containing the different mutant luciferase genes. The plates are then incubated for about 4 hours at room temperature.
One (1) ml of a solution contains 1 mM luciferin and 100 mM sodium citrate is pipetted onto a slide warmer that is set at 50° C. […]

[3] = Michaelis-Menten constant for luciferin of purified mutants; format: biochemical; settings: purified enzyme
Description: (§1) Substrate binding was screened by measuring an apparent composite Km (see Example 2) for luciferin and ATP. […] The Km for luciferin rose while the Km for ATP declined (Table 3). The reason for this change is unknown, although it can be speculated that more efficient release of oxyluciferin or luciferin inhibitors could lead to more rapid enzyme turnover.
(§2) Protein purification: Four mutants that are described herein (Luc[T249M], Luc49-7C6, Luc78-0B10, and Luc90-1B5) were purified using a previously published procedure (Hastings et al., 1996).

[4] = Michaelis-Menten constant for ATP of purified mutants; format: biochemical; settings: purified enzyme
Description: as §1, §2

[5] = Thermostability (half-life, retained activity) of luciferases incubated in aqueous solution at different temperatures; format: physicochemical; settings: purified enzyme
Description: As defined herein, a “thermostable” enzyme, e.g., a luciferase, or an enzyme which has “thermostability”, is an enzyme which under certain conditions, e.g., at certain temperature, in aqueous solution and/or for certain periods of time, has an increased retention of activity relative to a reference enzyme. For example, for a thermostable luciferase, a reference luciferase may be native wild-type luciferase or recombinant wild-type luciferase. Preferably, for beetle luciferases, the activity is luminescence under conditions of saturation with luciferin and ATP. One measure of thermostability of an enzyme is the half-life of the enzyme in an aqueous solution (the time over which 50% of the activity is lost) at a stated temperature.
as §2
[…] Enzyme stability was determined from diluted proteins incubated at different temperatures, and aliquots were removed at different time points. A linear regression of the natural log of the luminescence and time was calculated. Half-life was calculated as the 1n(0.5)/slope of the regression.

[6] = Retention of luminescence activity at pH 4.5 and 48° C.; format: physicochemical; settings: for thermostability relative to Luc90-1B5: pH 4.5 and 48° C.; for half-life: pH 4.5 and 48° C. (FIG. 54B)
Description: Three populations of random mutants were produced using clone Luc90-1B5 as a template. These three populations were screened on the robot as experiments 114, 115, and 117. […] These screening conditions were biased to select clones that have increased retention of luminescence activity over time at pH 4.5 at 48° C. and increased luminescence activity when assayed at pH 7.1 with 10 μM ATP. Seventeen clones from experiment 114, seven clones from experiment 115, and ten clones from experiment 116 were shuffled together using sPCR and selected mutants from this screen were run on the robot as experiment 117. Eighteen clones were selected from experiment 117.

[7] = Assay to detect resistance to luciferase inhibitor (luciferin breakdown products); format: biochemical; settings: luciferin degradation products (FIG. 61)
Description: A 10 mM stock solution of luciferin is incubated at 50° C. in 50 mM HEPES, pH 7.8, to accelerate the production of luciferin breakdown products. At different time points an aliquot is removed and then placed at −20° C. After incubation is complete, assay reagent (100 μM Luciferin, 1 μM ATP, 50 mM HEPES, pH 7.8 and 8 mM MgSO4) is prepared with luciferin from each of the different time points and a diluted lysate is then assayed with each assay reagent.
The lysate is prepared as follows. Overnight cultures of clones to be tested are prepared in LB supplemented with 100 μg/ml AMP. The cultures are diluted 1:10 in M-9 minimal media supplemented with 1 mM IPTG, 100 μg/ml AMP and grown for 3 hours at 30° C. Forty-five μl of cells is mixed with 20 μl of Buffer A and frozen. The mixture is thawed, 175 μl of Buffer B added, and the resulting mixture diluted 1:10 in Buffer C. A regression of luminescence versus time of luciferin incubation is then calculated, and from this graph half-life is extrapolated. A longer half-life means that the mutant being tested is more resistant to luciferin breakdown products.

B1: Luc30-4B02: LucPplYG mutant, first cycle of random mutagenesis (protein)
chain: MMKREKNVIYGPEPLHPLEDLTAGEMLFRALRKHSHLPQALVDVVGDESLSYKEFFEATVLLAQSLHNCGYKMNDVVSICAENNTRFFIPVIAAWYIGMIVAPVNESYIPDELCKVMGISKPQIVFTTKNILNKVLEVQSRTNFIKRIIVLDTVENIHGCESLPNFISRYSDGNIANFKPLHFDPVEQVAAILCSSGTTGLPKGVMQTHQNICVRLIHALDPRAGTQLIPGVTVLVYLPFFHAFGFSITLGYFMVGLRVIMSRRFDPEAFLKAIQDYEVRSVINVPSVILFLSKSPLVDKYDLSSLRELCCGAAPLAKEVAEVAAKRLNLPGIRCGFGLTESTSANIHSLRDEFKPGSLGRVTPLMAAKIADRETGKALGPNQVGELCIKGPMVSKGYVNNVEATKEAIDDDGWLHSGDFGYYDEDEHFYVVDRYKELIKYKGSQVAPAELEEILLKNPCIRDVAVVGIPDLEAGELPSAFVVKQPGKEITAKEVYDYLAERVSHTKYLRGGVRFVDSIPRNVTGKITRKELLKQLLEKAGG
modifications: Mutant luciferase
notes: LucPplYG mutant, first cycle of random mutagenesis
decrease of activity over 10 hours ([1]; 41° C.): 63 fold | decrease of activity ([1]; 42° C.): greater than 2000 fold

B2: LucPpe2[T249M]: LucPpe2 firefly luciferase (Photuris pennsylvanica) with mutation Thr to Met at residue 249, SEQ ID NO:25 (protein)
chain: MEDKNILYGPEPFYPLADGTAGEQMFYALSRYADISGCIALTNAHTKENVLYEEFLKLSCRLAESFKKYGLKQNDTIAVCSENGLQFFLPLIASLYLGIIAAPVSDKYIERELIHSLGIVKPRIIFCSKNTFQKVLNVKSKLKYVETIIILDLNEDLGGYQCLNNFISQNSDINLDVKKFKPNSFNRDDQVALVMFSSGTTGVSKGVMLTHKNIVARFSHCKDPTFGNAINPTTAILTVIPFHHGFGMMTTLGYFTCGFRVALMHTFEEKLFLQSLQDYKVESTLLVPTLMAFFAKSALVEKYDLSHLKEIASGGAPLSKEIGEMVKKRFKLNFVRQGYGLTETTSAVLITPDTDVRPGSTGKIVPFHAVKVVDPTTGKILGPNETGELYFKGDMIMKGYYNNEEATKAIINKDGWLRSGDIAYYDNDGHFYIVDRLKSLIKYKGYQVAPAEIEGILLQHPYIVDAGVTGIPDEAAGELPAAGVVVQTGKYLNEQIVQNFVSSQVSTAKWLRGGVKFLDEIPKGSTGKIDRKVLRQMFEKHKSKL
modifications: Mutant luciferase
light produced in vivo when expressed in E. coli, relative to LucPpe2 [2]: approximately 5 fold | Km [3]: 320 nM | Km [4]: 18 µM | Thermostability Of Luciferase Activity (Half-Life In Hours) ([5]; 37° C.): 35.4 min | Thermostability Of Luciferase Activity (Half-Life In Hours) ([5]; 50° C.): 0.6 min | Thermostability Of Luciferase Activity (Half-Life In Hours) ([5]; Room Temperature (about 25° C.)): 6600 min

B3: Luc133-1B2: mutant luciferase, SEQ ID NO:44 (protein)
chain: MADKNILYGPEPFYPLEDGTAGEQMFDALSRYADIPGCIALTNAHTKENVLYEEFLKLSCRLAESFKKYGLKQNDTIAVCSENSLQFFLPVIASLYLGIIVAPVNDKYIERELIHSLGIVKPRIVFCSKNTFQKVLNVKSKLKSIETIIILDLNDDLGGYQCLNNFISQNSDSNLDVKKFKPYSFNRDDQVALIMFSSGTTGLPKGVMLTHKNIVARFSIAKDPTFGNAINPTSAILTVIPFHHGFGMMTTLGYFTCGFRVVLMHTFEEKLFLQSLQDYKVESTLLVPTLMAFLAKSALVEKYDLSHLKEIASGGAPLSKEIGEMVKKRFKLNFVRQGYGLTETTSAVLITPKGDAKPGSTGKIVPFHAVKVVDPTTGKILGPNEPGELYFKGPMIMKGYYNNEEATKAIIDNDGWLRSGDIAYYDNDGHFYIVDRLKSLIKYKGYQVAPAEIEGILLQHPYIVDAGVTGIPDEAAGELPAAGVVVQTGKYLNEQIVQDYVASQVSTAKWLRGGVIFLDEIPKGSTGKIDRKVLRQMLEKHTNG
modifications: Mutant luciferase
thermostability relative to Luc90-1B5 [6]: increased thermostability | half-life [6]: about 20 minutes | resistance to inhibitor relative to Luc90-1B5 [7]: increased resistance to inhibitor

B4: Luc146-1H2: mutant luciferase, SEQ ID NO:45 (protein)
chain: MADKNILYGPEPFYPLEDGTAGEQMFDALSRYAAIPGCIALTNAHTKENVLYEEFLKLSCRLAESFKKYGLKQNDTIAVCSENSLQFFLPVIASLYLGIIVAPVNDKYIERELIHSLGIVKPRIVFCSKNTFQKVLNVKSKLKSIETIIILDLNEDLGGYQCLNNFISQNSDSNLDVKKFKPYSFNRDDQVASIMFSSGTTGLPKGVMLTHKNIVARFSIAKDPTFGNAINPTSAILTVIPFHHGFGMMTTLGYFTCGFRVVLMHTFEEKLFLQSLQDYKVESTLLVPTLMAFLAKSALVEKYDLSHLKEIASGGAPLSKEIGEMVKKRFKLNFVRQGYGLTETTSAVLITPKGDAKPGSTGKIVPLHAVKVVDPTTGKILGPNEPGELYFKGPMIMKGYYNNEEATKAIIDNDGWLRSGDIAYYDNDGHFYIVDRLKSLIKYKGYQVAPAEIEGILLQHPYIVDAGVTGIPDEAAGELPAAGVVVQTGKYLNEQIVQDYVASQVSTAKWLRGGVKFLDEIPKGSTGKIDRKVLRQMLEKHTNG
modifications: Mutant luciferase
thermostability relative to Luc90-1B5 [6]: increased thermostability | half-life [6]: about 62 minutes | resistance to inhibitor relative to Luc90-1B5 [7]: increased resistance to inhibitor
